Measurements: patent US20130330342A1 (CENTRE NATIONAL DE LA RECHERCHE SCIENTIFIQUE CNRS, published 2013)

Molecular target: T1, CD8-Stop (UniProt P01732 22-203, limits assumed)
T1 construct: domain: CD8 receptor devoid of cytoplasmic domain; Control expressed in HeLa or 293T cells; also called CD8 protein devoid of cytoplasmic domain; control CD8-Stop protein
Assay: co-immunoprecipitation from 293T cells (anti-CD8 IP, anti-c-myc blot)
Procedure: The direct recognition of Nef by sdAb Nef19 was explored at the cell level by means of coimmuno-precipitation experiments. […] These constructs have been previously described (Janvier et al., 2003a,b; Madrid et al., 2005). The same type of experiment was also carried out on cells coexpressing the sdAb and the CD8 protein devoid of cytoplasmic domain (CD8-Stop) used as a control. 24 h after transfection, the cells were lyzed in a buffer containing 100 mM of (NH₄)₂SO₄, 20 mM of Tris (pH 7.5), 10% of glycerol, 1% of IGEPAL and a cocktail of protease inhibitors (Roche). The cell lyzate (600 μg of total proteins) was incubated for 1 h at 4° C. with 3 μg of the anti-CD8 Ab (32M4, Santa Cruz) and 30 μl of beads coated with protein A-sepharose. The immunoprecipitates were then analyzed by immunoblotting using an anti-CD8 Ab (H160, Santa Cruz) and an anti-c-myc Ab (9E10).

T1 sequence (P01732 22-203 limits assumed): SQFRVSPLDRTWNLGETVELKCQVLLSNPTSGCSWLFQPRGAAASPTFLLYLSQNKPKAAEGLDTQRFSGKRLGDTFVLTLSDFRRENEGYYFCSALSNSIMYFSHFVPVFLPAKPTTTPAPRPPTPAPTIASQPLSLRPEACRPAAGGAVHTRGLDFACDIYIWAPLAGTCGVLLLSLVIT

B1: sdAb Nef19 (VHH)
VHH: EVQLVESGGGLVQPGGSLKLSCAASGSIFRANAMRWYRQAPGKQREWVASVISDDFTDYVDSVRGRFTISKDNAQNTVYLQMNSLKPEDTAVYYCNAQLGGVNYWGQGTQVTVSS
notes: Llama VHH from the immune library; The soluble form carries C-terminal c-myc and 6His tags and is detected with mAb 9E10; also called sdAb Nef19P; sdAb Nef19C
Does B1 bind?
Result: no binding
